Legend:
[1] = tested on: thioFAB 4497 MP-LAFGA-QSY7
[2] = tested on: thio-S4497 HC v1-MP-LAFG-PABC-(piperazinoBOR) AAC-193
[3] = tested on: thioFAB 4497 MP-LAFAA-QSY7

staphopain B
100%: Percent cleavage pH 7.2 [1] | Percent cleavage pH 5 [2] | Percent cleavage pH 7.2 [2] | Percent cleavage pH 7.2 [3]
